Results taken from article PMC6957217.

Molecular target: Three of the mutant needles, I933A, N937A, and G938A
Assay: ELISA; gp37 trimers coated (100 ng/well) overnight at 4°C, casein block, OmpC added (various molar ratios; gp37:OmpC 1:1 for the mutants), 37°C 2 hr, PBS-T washes, bound OmpC detected with mouse anti-OmpC sera and HRP anti-mouse IgG

fold binding against the WT needle: 2 to 3 fold
B1: recombinant OmpC trimer (outer membrane protein C) (natural protein)
chain: AEVYNKDGNKLDLYGKVDGLHYFSDNKDVDGDQTYMRLGFKGETQVTDQLTGYGQWEYQIQGNSAENENNSWTRVAFAGLKFQDVGSFDYGRNYGVVYDVTSWTDVLPEFGGDTYGSDNFMQQRGNGFATYRNTDFFGLVDGLNFAVQYQGKNGNPSGEGFTSGVTNNGRDALRQNGDGVGGSITYDYEGFGIGGAISSSKRTDAQNTAAYIGNGDRAETYTGGLKYDANNIYLAAQYTQTYNATRVGSLGWANKAQNFEAVAQYQFDFGLRPSLAYLQSKGKNLGRGYDDEDILKYVDVGATYYFNKNMSTYVDYKINLLDDNQFTRDAGINTDNIVALGLVYQF
